According to article doi:10.1101/2020.02.08.939488:

Biological target: rabbit reticulocyte lysate 60S ribosomal subunit, purified (rabbit) (UniProt G1SV32)
Assay: co-sedimentation

recombinant full-length Ebp1 with a N-terminal histidine tag (Ebp1-His) (from UniProt P50580 1-394) (natural protein)
Ebp1 concentration at saturated binding (100 nM 60S): 200 nM | Kd: 124 nM
